Assay results published in the supplement of paper PMC10126150.
± gives the standard deviation of the averaged measurements.

System: ATP
Test: switch fluorescence ratio, 500 uM ATP over buffer (Cy3 cluster intensity, sum of 5 cycles each) (fold (ratio)); higher = stronger signal-on switching upon ATP binding; sequences stand for … in TCGTCGGCAGCGTCAGATGTGTATAAGAGACAGTTTTTTTTTTTTTTTTTTTTTTTTT…TC
Settings: aptamer strand: ATP DNA aptamer (quencher-CACCTGGGGGAGTATTGCGGAGGAAGG + anchor), 100 nM annealed; ATP concentration: 500 uM
Summary of the method: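 The quencher-labelled ATP aptamer, at 100 nM, was annealed to Cy3-labelled switching-strand clusters on a modified Illumina MiSeq flow-cell. The clusters were imaged in selection buffer, then after 15 min with 500 uM ATP at 22 °C, and this buffer/ATP cycle ran five times with NaOH stripping and re-annealing between runs. Per-cluster fluorescence ratios, summed target-cycle over summed buffer-cycle Cy3 intensity, were averaged per switch-domain sequence. Clusters outside 100-1000 RFU were excluded.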
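Note: ATP exposure 15 min at 22 °C before imaging.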

| Sequence | switch fluorescence ratio |
| --- | --- |
| TAAGCAGACG | 0.9687 ± 0.0061 |
| TAAGCAGTTA | 1.08 ± 0.12 |
| TAAGCCCACG | 1.09 ± 0.023 |
| TAAGCGGCGG | 1 ± 0.036 |
| TAAGCGGGGG | 0.999 ± 0.017 |
| TAAGCTCTGT | 0.984 ± 0.021 |
| TAAGCTGACG | 0.9973 ± 0.0098 |
| TAAGCTTATG | 0.9852 ± 0.0033 |
| TAAGGAAGTT | 1.009 ± 0.0096 |
| TAAGGACGAC | 1.02 ± 0.026 |
| TAAGGACGGC | 1.06 ± 0.035 |
| TAAGGAGTAA | 1.034 ± 0.01 |
| TAAGGAGTGC | 0.955 ± 0.12 |
| TAAGGATTAT | 1.008 ± 0.0024 |
| TAAGGCATAG | 1.04 ± 0.044 |
| TAAGGCGAAC | 1.03 ± 0.015 |
| TAAGGCGGTG | 1.04 ± 0.061 |
| TAAGGCGTAG | 1.08 ± 0.061 |
| TAAGGCGTTA | 0.985 ± 0.031 |
| TAAGGCTCCC | 1.063 ± 0.0044 |
| TAAGGGAATT | 1 ± 0.036 |
| TAAGGGGATG | 0.99 ± 0.011 |
| TAAGGGGCAA | 1.01 ± 0.018 |
| TAAGGGGCGG | 0.989 ± 0.04 |
| TAAGGGGGGT | 1.02 ± 0.034 |
| TAAGGGGGTG | 1.01 ± 0.023 |

| Sequence | switch fluorescence ratio |
| --- | --- |
| TAAGGGTGTA | 0.9934 ± 0.004 |
| TAAGGGTTAC | 0.996 ± 0.03 |
| TAAGGTAGGT | 0.993 ± 0.016 |
| TAAGGTTGAC | 0.9953 ± 0.0035 |
| TAAGGTTGTA | 0.9705 ± 0.0047 |
| TAAGTAAAAT | 0.9968 ± 0.0089 |
| TAAGTACGTG | 1.18 ± 0.035 |
| TAAGTAGATT | 0.995 ± 0.018 |
| TAAGTATCGC | 1.03 ± 0.036 |
| TAAGTATTCG | 0.9972 ± 0.0086 |
| TAAGTATTGT | 1.012 ± 0.0084 |
| TAAGTCCACC | 1.012 ± 0.01 |
| TAAGTCCCCA | 1.01 ± 0.052 |
| TAAGTCCTT | 1.01 ± 0.048 |
| TAAGTGACGG | 1.04 ± 0.036 |
| TAAGTGGGGA | 0.959 ± 0.032 |
| TAAGTGGGTA | 0.991 ± 0.011 |
| TAAGTGGGTG | 1.01 ± 0.027 |
| TAAGTGGTGA | 1.04 ± 0.056 |
| TAAGTTGAGT | 1.01 ± 0.0093 |
| TAAGTTGTGT | 0.972 ± 0.036 |
| TAAGTTGTTG | 0.993 ± 0.042 |
| TAAGTTGTTT | 0.996 ± 0.013 |
| TAATAAAAAA | 0.9772 ± 0.0069 |
| TAATAAAGGT | 0.995 ± 0.025 |
| TAATAAATCA | 1 ± 0.036 |

| Sequence | switch fluorescence ratio |
| --- | --- |
| TAATACTTCG | 1.03 ± 0.012 |
| TAATAGAAGT | 0.979 ± 0.052 |
| TAATAGGGGG | 1.02 ± 0.035 |
| TAATAGGTTC | 0.972 ± 0.024 |
| TAATATGGGT | 0.988 ± 0.023 |
| TAATATGTTC | 1 ± 0.037 |
| TAATATTTCG | 1.05 ± 0.04 |
| TAATCAGGAA | 1.015 ± 0.0046 |
| TAATCCATTT | 1.02 ± 0.036 |
| TAATCCTCGT | 1.005 ± 0.0058 |
| TAATCCTTTG | 1.01 ± 0.048 |
| TAATCGCGGC | 1.31 ± 0.35 |
| TAATCGGGAA | 1 ± 0.017 |
| TAATCTTTGG | 0.961 ± 0.035 |
| TAATGACTGT | 1.02 ± 0.045 |
| TAATGAGCTT | 0.995 ± 0.013 |
| TAATGATGAG | 0.987 ± 0.028 |
| TAATGATTGA | 0.985 ± 0.0078 |
| TAATGATTGC | 1.056 ± 0.0026 |
| TAATGCCAGG | 1.088 ± 0.0038 |
| TAATGCGTGG | 0.999 ± 0.032 |
| TAATGGGTAA | 1.01 ± 0.065 |
| TAATGGGTCC | 0.99 ± 0.019 |
| TAATGGTCCG | 1.03 ± 0.03 |
| TAATGGTTCG | 0.9962 ± 0.0025 |
| TAATGGTTTG | 1.08 ± 0.12 |

| Sequence | switch fluorescence ratio |
| --- | --- |
| TAATGTATTT | 1.01 ± 0.02 |
| TAATGTGGCC | 1.01 ± 0.039 |
| TAATGTGGGG | 0.9715 ± 0.0056 |
| TAATGTGTTG | 0.994 ± 0.014 |
| TAATGTTGGT | 1.025 ± 0.0014 |
| TAATGTTTAG | 0.99019 ± 0.00022 |
| TAATTAAATT | 0.9767 ± 0.0046 |
| TAATTAGTTA | 0.992 ± 0.025 |
| TAATTCGTCG | 0.997 ± 0.018 |
| TAATTGAAGA | 0.971 ± 0.012 |
| TAATTGACCG | 1.091 ± 0.0088 |
| TAATTGAGCA | 0.99 ± 0.019 |
| TAATTGCCTT | 1.02 ± 0.017 |
| TAATTGGAGG | 0.9805 ± 0.0051 |
| TAATTGGGGC | 1.02 ± 0.012 |
| TAATTGTAAT | 1.04 ± 0.014 |
| TAATTGTAGG | 0.98 ± 0.032 |
| TAATTGTTTT | 1 ± 0.024 |
| TAATTTACAG | 1 ± 0.03 |
| TAATTTACTA | 1.04 ± 0.03 |
| TAATTTAGAA | 0.975 ± 0.021 |
| TAATTTCGGG | 0.986 ± 0.013 |
| TAATTTCTGT | 1.01 ± 0.024 |
| TAATTTGAAT | 1.028 ± 0.0063 |
| TAATTTGGAA | 1.009 ± 0.0095 |
| TAATTTTGAG | 0.9957 ± 0.0029 |

| Sequence | switch fluorescence ratio |
| --- | --- |
| TAATTTTTG | 0.9976 ± 0.0011 |
| TACAAACGGT | 1.17 ± 0.25 |
| TACAAGATGT | 1.01 ± 0.029 |
| TACAAGCTAA | 0.978 ± 0.032 |
| TACAAGTAT | 0.997 ± 0.028 |
| TACAAGTCGA | 1.016 ± 0.0042 |
| TACAATCGCC | 1.06 ± 0.029 |
| TACACGGGTT | 1.01 ± 0.035 |
| TACAGAGATT | 0.9778 ± 0.0084 |
| TACAGATTGG | 0.979 ± 0.025 |
| TACAGGACTC | 1.09 ± 0.012 |
| TACAGGCTCG | 1.007 ± 0.01 |
| TACAGGGGGC | 1.12 ± 0.12 |
| TACAGGGGGT | 1.02 ± 0.062 |
| TACAGTTGCG | 1.02 ± 0.045 |
| TACATATCTT | 1.01 ± 0.025 |
| TACATCCGAG | 1.08 ± 0.029 |
| TACATGGGTT | 1.01 ± 0.0092 |
| TACATGTTAG | 1.01 ± 0.024 |
| TACCAATGGA | 1.02 ± 0.04 |
| TACCAATTAA | 1.01 ± 0.026 |
| TACCACGGGG | 1.04 ± 0.019 |
| TACCACTGCG | 1.04 ± 0.029 |
| TACCAGGGGT | 0.9909 ± 0.0039 |
| TACCATTTTG | 1 ± 0.028 |
| TACCCGGGGT | 0.9827 ± 0.0097 |

| Sequence | switch fluorescence ratio |
| --- | --- |
| TACCGGGGAG | 1.021 ± 0.0045 |
| TACCGTGGGG | 1.05 ± 0.038 |
| TACCTAGTTA | 1.03 ± 0.029 |
| TACCTATGTT | 0.979 ± 0.011 |
| TACCTCACTA | 1.42 ± 0.17 |
| TACCTGGGGG | 1.02 ± 0.03 |
| TACCTGGTTA | 0.999 ± 0.049 |
| TACCTTCGTT | 1.04 ± 0.073 |
| TACGAAGGGT | 0.987 ± 0.009 |
| TACGAATCT | 1.03 ± 0.056 |
| TACGAATGAG | 0.9854 ± 0.0057 |
| TACGAATGGG | 1.01 ± 0.037 |
| TACGAGAGCC | 1.04 ± 0.037 |
| TACGAGCGAA | 1.34 ± 0.014 |
| TACGAGCTGA | 1.027 ± 0.0097 |
| TACGAGGGGG | 1 ± 0.021 |
| TACGAGGTGT | 1.06 ± 0.027 |
| TACGAGGTTT | 0.978 ± 0.03 |
| TACGATACAC | 1.44 ± 0.075 |
| TACGATAGGG | 1.21 ± 0.16 |
| TACGATATTT | 1.099 ± 0.0068 |
| TACGATGTGT | 1.03 ± 0.039 |
| TACGCCTGCA | 1.059 ± 0.0084 |
